Measured values taken from patent publication US20040009147A1 (Human Genome Sciences, published 2004).

Target: T1, mouse AIM II (LIGHT), membrane-bound (mouse, UniProt Q9QYH9 1-239)
T1 construct: whole, on cells; On human 293 cells transfected with pmAIM II (flow cytometry); also called mAIM II; pmAIM II-transfected 293 cells
T1 sequence (looked up): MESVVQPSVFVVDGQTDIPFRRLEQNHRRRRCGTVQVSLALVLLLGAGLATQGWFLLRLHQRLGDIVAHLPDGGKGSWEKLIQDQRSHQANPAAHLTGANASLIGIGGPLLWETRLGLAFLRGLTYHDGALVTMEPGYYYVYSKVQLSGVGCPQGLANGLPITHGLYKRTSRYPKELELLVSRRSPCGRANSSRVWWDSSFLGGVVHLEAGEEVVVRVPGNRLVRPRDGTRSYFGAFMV
Assay: flow cytometry, mouse LTβR-Ig (1 µg in 50 µl) on 293 cells transfected with pmAIM II, FITC goat anti-human IgG
Procedure: Flow cytometric analysis. Human 293 cells (1×10⁶ cells) were transfected with either mouse AIM II pcDNA3 vector (10μg) or mock vector (10 μg) by calcium phosphate methods. After 30 hr of transfection, 293 cells were harvested and stained with 1 μg of mouse LTβR-Ig or the anti-AIM II antibody in 50 μl of PBS supplemented with 5% FBS and 0.02% azide for 30 min at 4° C. The cells were then washed and further incubated with FITC-conjugated anti-human IgG or anti-rabbit IgG for 30 min at 4° C., respectively. Fluorescence was analyzed by a FACSCalibur flow cytometry (Becton Dickinson, Mountain View, Calif.) with Cell Quest software (Becton Dickinson).

B1: mouse LTβR-Ig fusion protein (mouse LTβR extracellular domain fused to the Fc portion of human IgG1) (Fc fusion, UniProt P50284 31-223, looked up)
chain: QLVPPYRIENQTCWDQDKEYYEPMHDVCCSRCPPGEFVFAVCSRSQDTVCKTCPHNSYNEHWNHLSTCQLCRPCDIVLGFEEVAPCTSDRKAECRCQPGMSCVYLDNECVHCEEERLVLCQPGTEAEVTDEIMDTDVNCVPCKPGHFQNTSSPRARCQPHTRCEIQGLVEAAPGTSYSDTICKNPPEPGAMLL
notes: extracellular domain; Made in BHK/VP16 cells, purified on Protein A; not shown: Fc portion of human IgG1 (vector pX58)
B1: binds.
